Data published in the nanobody polyreactivity screen of Harvey et al. (2022).

Assay: yeast display, Sf9 membrane polyspecificity reagent, FACS + sequencing; frameworks hold sequencing errors
Outline: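 Galactose induction of a Saccharomyces cerevisiae BJ5465 synthetic nanobody display library ran 36–48 hours. The cells were then stained for 1 hour at 4 °C with 10% biotinylated, detergent-solubilized Sf9 membrane reagent, pulled down on streptavidin microbeads and FACS-sorted into low and high (top ~1%) gates on expression and reagent-binding fluorescence. Labels for polyreactivity follow the gate of origin.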

Row | Sequence | polyreactivity (PSR sort gate)
1 | QVQLVESGGGLVQAGGSLRLSCAASGRIFKGYAMGWYRQAPGKERELVAAITWRGGTTYYADSVKGRFTISRDNAKNTVYLQMNSLKPEDTAVYYCATTRYPRSYQEFGYWGQGTQVTVSS | high polyreactivity
2 | QVQLVESGGGLVQAGGSLRLSCAASGRIFKGYAMGWYRQAPGKERELVAAITWRGGTTYYADSVKGRFTISRDNAKNTVYLQMTSLKPEDTAVYYCARARPTGYNYWGQGTQVTVSS | high polyreactivity
3 | QVQLVESGGGLVQAGGSLRLSCAASGRIFKNNAMGWYRQAPGKERELVAGISRSGGRTYYADSVKGRFTISRDNAKNTVYLQMNSLKPEDTAVYYCNAYAYYSHGVTTTYDYWGQGTQVTVSS | high polyreactivity
4 | QVQLVESGGGLVQAGGSLRLSCAASGRIFKRSVMGWYRQAPGKERELVAAITGRGGSTYYADSVKGRFTISRDNAKNTVYLQMNSLKPEDTAVYYCNAKDAEHYERFNYWGQGTQVTVSS | low polyreactivity
5 | QVQLVESGGGLVQAGGSLRLSCAASGRIFKRYAMGWYRQAHGKERELVASITWSGGSTYYADSVKGRFTISRDNAKNTVYLQMNSLKPEDTEVYYCAARRTATTSRAYYYWGQGTQVTVSS | high polyreactivity
6 | QVQLVESGGGLVQAGGSLRLSCAASGRIFKRYAMGWYRQAPGKERELVAAITRSGTRTYYADSVKGRFTISRDNAKNTVYLQMNSLKPEDTAVYYCAAALGWYSAFGYWGQGTLVTVSS | high polyreactivity
7 | QVQLVESGGGLVQAGGSLRLSCAASGRIFKRYAMGWYRQAPGKERELVAAITYNSGSTYYADSVKGRFTISRDNAKNTVYLQMNSLKPEDTAVYYCAAEKWSDQSPRGDYWGQGTQVTVSS | low polyreactivity
8 | QVQLVESGGGLVQAGGSLRLSCAASGRIFKSYVMGWYRQAPGKERELVAAITRTGGSTYYADSVKGRFTISRDNAKYTVYLQMNSLTPEDTAVYYCNARYSWPRATWYDYWGQGTQVTVSS | high polyreactivity
9 | QVQLVESGGGLVQAGGSLRLSCAASGRIFKTNAMGWYRQAPGKERELVAAISWRGVGTYYADSVKGRFTISRDNAKNTVYLQMNSLKPEDTAVYYCAARWTVPRDTAPSKGYDYWGQGTQVTVSS | low polyreactivity
10 | QVQLVESGGGLVQAGGSLRLSCAASGRIFKTYTMGWYRQAPGKERELVAVITSGGGTYYADSVKGRFTISRDNAKNTVYLQMNSLKPEDTAVYYCAARGLESPYGYWGQGTQVTVSS | low polyreactivity
11 | QVQLVESGGGLVQAGGSLRLSCAASGRIFKVNAMGWYRQAPGKERELVAVINSRGGSTYYADSVKGRFTISRDNAKNTVYLQMNSLKPEDTAVYYCAAPLTYFKRVYYWGQGTQVTVSS | high polyreactivity
12 | QVQLVESGGGLVQAGGSLRLSCAASGRIFKWNAMGWYRQAPGKERELVAAISLSGGSTYYADSVKGRFTISRDKAKNTVYLQMNSLKPEDTAVYYCNAYAYHRYGYWGQGTQVTVSS | high polyreactivity
13 | QVQLVESGGGLVQAGGSLRLSCAASGRIFKWNAMGWYRQAPGKERELVAAISTSGGNTYYADSVKGRFTISRDYAKNTVYLQMNSLKPEDTAVYYCAATYPNSLRQVGYWGQGTQVTVSS | high polyreactivity
14 | QVQLVESGGGLVQAGGSLRLSCAASGRIFKYNAMGWYRQAPGKERELVAAIRRSGGSTYYADSVKGRFTISRDNAKNPVYLQMNSLNPEDTAVYYCAATGYVGGIYGHYPRGYWGQGTQVTVSS | high polyreactivity
15 | QVQLVESGGGLVQAGGSLRLSCAASGRIFKYNAMGWYRQAPGKERELVAAISGRGVSTYYADSVKGRFTISRDNAKNTVYLQMNSLKPEDTAVYYCAAETVHGSADFDYWGQGTKVTVSS | low polyreactivity
16 | QVQLVESGGGLVQAGGSLRLSCAASGRIFKYYAMGWFRQAPGKERELVAAISSGSSTNYADSVKGRFTISRDTAKNTVYLQMNSLKPEDTAVYYCAAKYYRSKFDFWGQGTQVTVSS | high polyreactivity
17 | QVQLVESGGGLVQAGGSLRLSCAASGRIFKYYAMGWYRQAPGKERELVAAINRDGGRTYYADSVKGRFTISRDNAKNTVYLQMNRLKPDDTAVYYCAASYGYWGQGSQVTVSS | low polyreactivity
18 | QVQLVESGGGLVQAGGSLRLSCAASGRIFKYYAMGWYRQAPGKERELVAAISRGGSTYYADSVKGRFTISRDNAKNTVYLQMNSLKPEDTAVYYCNRLSNNREYDYWGQGTQVTVSS | high polyreactivity
19 | QVQLVESGGGLVQAGGSLRLSCAASGRIFKYYAMGWYRQAPGKERELVARISSRGGSTNYADSVKGRFTISRDNAKNTVYLQMNSLKPEDTAVYYCAAQYQNFPYGYWGQGTQVTVSS | high polyreactivity
20 | QVQLVESGGGLVQAGGSLRLSCAASGRIFKYYAMGWYRQPPGKERELVAAISRSSGRTYYADSVKGRCTISRDNAKNTVYFQMIRLKPEDTAVYYCNALPSTVYLTYDYWGLGTQVTVSS | high polyreactivity
21 | QVQLVESGGGLVQAGGSLRLSCAASGRIFLANAMGWSRQAPGKERELVAAISLSGGRTYYADSVKGRFTISRDNAKNTVYLQMNSLKPEDTAVYYCAAEFYPIRYYGGYDYWGQGTLVTVSS | low polyreactivity
22 | QVQLVESGGGLVQAGGSLRLSCAASGRIFLFYAMGGYRQAPGKERELVAAISSTDDTYYADSVKGRFTISRDNAKNTVYLQMNSLKPEDTAVYYCAAYSIISQSEMYYWGQGTQVTVSS | low polyreactivity

Row | Sequence | polyreactivity (PSR sort gate)
23 | QVQLVESGGGLVQAGGSLRLSCAASGRIFLGNAMGWYRQAPGKERELVAAIDASGGSTYYADSVKGRFTISRDNAKNTVYLQMNSLKPVDTAVYYCNAEPRYYSGGHGYDYWGQGTQVTVSS | low polyreactivity
24 | QVQLVESGGGLVQAGGSLRLSCAASGRIFLGNVMGWYRQAPGKERELVAAISKSGGTTYYADSVKGRFTISRDNAKNTVYLQMNSLKPEDTAVYYCAAYGSWRTYHYYYWGQGTQVTVSS | high polyreactivity
25 | QVQLVESGGGLVQAGGSLRLSCAASGRIFLGNVMGWYRQAPGKERELVAAISSGGSTNYADSVKGRFTISRDNAKNTVYLQMNSLIPEDTAVYYCAAYFVRDWKLYYYWGQGTQVTVSS | low polyreactivity
26 | QVQLVESGGGLVQAGGSLRLSCAASGRIFLGYAKGWYRQAPGKERELVAAINRSGSSTYYADSVKGRFTISRDIAKNTVYLQMNSLKPEHSAVYYCNARSGNRYGPRYDYWVQGTQVTVSS | high polyreactivity
27 | QVQLVESGGGLVQAGGSLRLSCAASGRIFLGYAMGWYRQAPGKERELVAAISRSGGRTYYADSVKGRFTISRDNAKNTVYLQMNRLKPEDTAVYYCAARALYPLGYDYWGQGTQVTVSS | high polyreactivity
28 | QVQLVESGGGLVQAGGSLRLSCAASGRIFLINAMGWSRQAPGKERELDATISRSGASTDYADSVKGRFTISRDNAKNTVYLQMNSLKPEDTAVYYCNAKVYKRRVVPYDYWGQGTQVTVSS | high polyreactivity
29 | QVQLVESGGGLVQAGGSLRLSCAASGRIFLKNAMGWYRQAPGKERELVAVISRGGSTYYADSVKGRFTISRDNAKNTVYLQMNSLKPEDTAVYYCAAPYNVIFGGLDYWGQGTQVTVSS | high polyreactivity
30 | QVQLVESGGGLVQAGGSLRLSCAASGRIFLLNAMGWSRQAPGKERELVAAIDIIGGSTYYADSVKGRFTISRDNAKNTVYLQMNSLKPEDTAVFYCAAEADFWRFVEYDYWGQGTQVTVSS | low polyreactivity
31 | QVQLVESGGGLVQAGGSLRLSCAASGRIFLLNAMGWYRQAPGKERELVARISSGRTYYADSVKGRFTISRDNAKNTVYLQMNSLKPEDTAVYYCNATVSSSKYRYFYVNPYDYWGQGTQVTVSS | low polyreactivity
32 | QVQLVESGGGLVQAGGSLRLSCAASGRIFLPNAMGWYRQAPGKEREFVASISWSGGSTYYADSVKGRFTISRDNAKNTVYLQMNSLNPEDTAVYYCAAQSPAYYSKSYWGQGTQVTVSS | low polyreactivity
33 | QVQLVESGGGLVQAGGSLRLSCAASGRIFLPYAMGWYRHAPGKERELVAAISRTGDRTYYADSVKGRFTISRDNAKNTVYLHMNSLKPEDTAVYYCNTSLPPTVIRYHLRYPRYDHWGQGTQVTVSS | low polyreactivity
34 | QVQLVESGGGLVQAGGSLRLSCAASGRIFLRNAMGWYRQAPGKERELVATITSRGGSTYYADAVKGRFTISRDNAKNTVYLQMNSLKPVDTEVYDCAADPRRYRGFGYVYGGFYYWGQGTQVTVSS | low polyreactivity
35 | QVQLVESGGGLVQAGGSLRLSCAASGRIFLRNDMGWYRQAPGKERELVAGISSDGSTYYADSVKGRFTISRDNAKNTVYLQMNSLKPEDTAVDYCARYGTDHRLGYGYWGQGTQVTVSS | low polyreactivity
36 | QVQLVESGGGLVQAGGSLRLSCAASGRIFLSNALGWYSQAPGKERELVAALSWTGGSTYYADSVTGRFTISRDNAKNTVYLQMNSLKPEDTAVYYCAASTVGQTYSYYVDTYDYWGQGTQVTVSS | low polyreactivity
37 | QVQLVESGGGLVQAGGSLRLSCAASGRIFLVYVMGWYRQAPGKERELVADITFSGGSTYYADSVKGRFTISRDNAKNTVYLQMNSLKPEDTAVYYCAARKPRSGGPFDYWGQGTQVTVSS | high polyreactivity
38 | QVQLVESGGGLVQAGGSLRLSCAASGRIFLWYAMGWYRQAPGKERELVAAISSNGGSTRYADSVKGRFTISRDNAKNTVYLQMNSLKPVDNAVYYCNADVHWNRYPYGGNGYGYWGQGTQVTVSS | low polyreactivity
39 | QVQLVESGGGLVQAGGSLRLSCAASGRIFLWYAMGWYRQAPGKERELVAANSSNGGSTRYADSVKGRFTISRDNAKNTVYLQMNSLKPEDTAVYYCNADVHWNRYPYGGNGYGYWGQGTQVTVSS | low polyreactivity
40 | QVQLVESGGGLVQAGGSLRLSCAASGRIFLWYTMGWYRQAPGKERELVASITRGGTTNYADSVKGRFTISRDNAKNTVYLQMNSLKPEDTAVYYFNVAYTWCQSTTSWYDIHYYWGQGSQVTVSS | high polyreactivity
41 | QVQLVESGGGLVQAGGSLRLSCAASGRIFLYNAMGWYRQAPGKERELVAAISYNSGRTYYADSVKGRFTISRDNAKNTVYLQMNSLKPEDTAVYYCAAVSYPAVYGFDYWGQVTQVTVSS | high polyreactivity
42 | QVQLVESGGGLVQAGGSLRLSCAASGRIFLYYAMGWYRQAPGKERELVAAIDSSGGNTNYADSVKGRFTISRDNAKNTVYFQMNSLKPEDTAVYYCAADFYVSADRWPNYDYWGQGTQVTVSS | low polyreactivity
43 | QVQLVESGGGLVQAGGSLRLSCAASGRIFLYYAMGWYRQAPGKERELVAAITSDGSTNYADSVKGRFTISRDNAKNTVYLQMNSLKPEDTAVYYCARRIQTYHYHYDYWGQGTQVTVSS | low polyreactivity
